Experiment: yeast display, Sf9 membrane polyspecificity reagent, FACS + sequencing; frameworks hold sequencing errors
In short: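 A synthetic nanobody library was expressed on Saccharomyces cerevisiae BJ5465 by galactose induction for 36–48 hours. The library was stained for 1 hour at 4 °C with 10% biotinylated, detergent-solubilized Sf9 membrane reagent and enriched with streptavidin microbeads before FACS. Low and high (top ~1%) gates were set on anti-HA fluorescence for expression and streptavidin fluorescence for reagent binding, and each polyreactivity label reflects the gate of origin.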

## QVQLVESGGGLVQAGGSLRISCAASGVIFGTYAMRSYRQAPGKERELVAAITSGGTTIYADSVKGRFTISRDNAKNTVYLQMNSLKPEDTAVYYCAARRLYVGYGYDYWGQGTQVTVSS
  polyreactivity (PSR sort gate): high polyreactivity

## QVQLVESGGGLVQAGGSLRLSCAASGRIFFVYAMGWYRQAPGKERELVAHIPSGGSTSYADSVKGRFTISRDNAKNTDYLQMNSLKPEDTAVYSCAARYLGYIYVYYHYTDDYWGQGTQVTVSS
  polyreactivity (PSR sort gate): low polyreactivity

## QVQLVESGGGLVQAGGSLRLICAASGRIFRPYAMGWYRQAPGKERELVAAISSSGGSTYYADSVKGRFTISRDNAKNTVYLQMNSLKPEDTAVYYCATYFARGRRYDYWGQGTQVTVSS
  polyreactivity (PSR sort gate): high polyreactivity

## QVQLVESGGGLVQAGGSLRLSCAASGLIFAVYAMGWYRQAPGKERELVAGISASAASTYYADSVKGRFTISRDNAKNTVYLQMNSLKPEDTAVYYCAADFYWFWTYGTLWYGYEYWGQGTQVTVSS
  polyreactivity (PSR sort gate): high polyreactivity

## QVQLVESGGCLVQAGGSLRLSCAASGSIFDVNAMGLYRQAPGKERELVAAISDSGGSTYYADSVKGRFTISRDNAKNTVYLQMNSLKPEDTAVYYCNADWSLYNYYDFDYWGQGTQVTVSS
  polyreactivity (PSR sort gate): low polyreactivity

## QVHRVESGGGLVQAGGSLRLSCAASGSIFSYYDLGWYRQAPGNERELVAAISWDGGDRTYADSVKGRFTISRDNAKNNVYLQMNSLKPEDSAVYYCAKNTGSYRRVNLDYWGQGTQVTVSS
  polyreactivity (PSR sort gate): low polyreactivity

## QVQLVESGGGLVQAGGSLRLSCAASGRIFGGYAMGWYRQAPGKERELVAAISSGGNTKYADSVKGRFTISRDNAKNTVYLQMNSLKPEDTAVYYCAAAPYARREYEYWGQVTQVTVSS
  polyreactivity (PSR sort gate): high polyreactivity

## QVQLVESGGRLVQAGGSLRLSCSASGRICAYYAKGWYRQAPGKDRELVADSTYADSVKGRFTISRDNAKNTVYLQMKSLKPEYTAVYYCAVDYHFFLSRTYLPGSKYDFWGLGTQVTVSS
  polyreactivity (PSR sort gate): low polyreactivity

## QVQLVESGGGLVQAGGSLRLSCAASGGICRVYAMGWYRQAPGKERELVAAISRSGSSTYYADSVKGRFTISRDNAKNTVYLQMNSLKPEDTAVYYCNAYSQYWLGNNYWGQGTQVTVSS
  polyreactivity (PSR sort gate): high polyreactivity

## QVQLVESGGGLVQAGGSLRLSCAASGRTFFKYAMGWYRQAPGKERELVAAIRSGTSTYYADSVKGRFTISRDNAKNTVYLHMNSLKPEDTAVYYCAADWHSKIGKGYDYWGQGTQVTVSS
  polyreactivity (PSR sort gate): high polyreactivity

## QVQLVESVGGLVQAGGSLRLICAASGRTFSRNAMGWYRQAPGKERELVAGISWRGTSTYYADSVKGRFTISRDNAKNTVFLQMNSLKPEDTAVYYCNRVFEYWSEYDYWGQGTQVTVSS
  polyreactivity (PSR sort gate): high polyreactivity

## QVQLVESGGGLVQAGGSLRLSCDASGRMFALYAMGWYRQAPGKERELVAAITWRGGRTRYADSVKGRFTISRDNAKNTVYLQMTSLKPEDTAVYYCNKRLFASRYDYWGQGTQVTVSS
  polyreactivity (PSR sort gate): high polyreactivity

## QVQLVDSGGGLVQAVGSLRLSCAASGRTFRRYAMGWYRQAPGKERELVAAISRSGGSTYYADSVNGRFTISRDNAKNTVYLQMNSLKPEDTAVYYCAAGIWSKLVEPFDYCGQGTQVTVSS
  polyreactivity (PSR sort gate): high polyreactivity

## QVQLVESGGGLVQAGGSLRLSCAASGNIIQYYAMGWYRQAPGKERELVADIDSSGASKYYADSVKGRFTISRDNAKNTVYLQMNSLKPEVTAVYYCAAEFHWWYAGYDYGYWGQGTQVTVSS
  polyreactivity (PSR sort gate): low polyreactivity

## QVQLVESGGGLVQAGGSLRLSCAASGRTFPYYAMGWYRQAPGKERELVAAISSSGGSTYYADSVKGRFTISRDNAKYTVYLQMNSLKPEDTAVYYCAAVYQFIKWGDRYEYWGQGTQVTVSS
  polyreactivity (PSR sort gate): high polyreactivity

## QVQLVESGGGLVQAGGSLRLSCAASGRTFGPYAMGWYRQAPGKERELVAAITCSGGSTYYADSVKGRFTISRYNAKNTVYLQMNSLKPEDTAVYYCAPYHLSKLDYWGQGTQVTVSS
  polyreactivity (PSR sort gate): low polyreactivity

## QVQLVESGGGLVQAGGSLRLSCAASGGTFYGNAMGWYRQAPGKERELVAGITDDSSTYYADSVKGRFTISRDNAKNTVYLQMNSLKPEDTAVYYCAKDLSWYYLPEVYYWGQGTQVTVSS
  polyreactivity (PSR sort gate): low polyreactivity

## QVQLVESGGGLVQAGGSLRLICAASGRTFGGNAMGWYRQAPGKERELVASITSRGGTTYYADSVKGRFTISRDNAKNTVYLQMNSLKPEDTAVYYCAALRRSSFGYWGQGTQVTVSS
  polyreactivity (PSR sort gate): high polyreactivity

## QVQLVESGGGLVQAGGSLRLSCAASGSIFSANTMGWYRQEPGKEREFVAGITTSAGRTYYADSVKGRFTISRDNAKNTVYLQMNSLKPEDTAVYYCAARVWRSYNYWGQGTQVTVSS
  polyreactivity (PSR sort gate): high polyreactivity

## QVQLVETGGGLVQAGGSLRLSCAASGSIFTKYAMGRYRQAPGKERELVAAISWSGVSTYYADSVKGRFTISRDNAKNTVYLLMNSLKPEDTAVYYCNTRRYRSYGTTRYCFWGQGTQVTVSS
  polyreactivity (PSR sort gate): high polyreactivity

## QVQLVESGGGLVQAGGSLRLSCAASGSIIKRNDMGWYRQAPGKERELVASITWRGGRTYYADSVKGRFTISRDNAKNTVYLQMNSLTPEDTSVYYCATTQYPSHYDAYGYWGQGTQVTVSS
  polyreactivity (PSR sort gate): high polyreactivity

## QVQLVESGGGLVQAGGSLRLSCAASGFIFSSYAMGWYRQAPGKERELVAAITSGGSTYYADSVKGRFTISRDNAKNTVYLQMNSLKPEDTAVYYCAADHWDGQYWFDYWGQGTQVTVSS
  polyreactivity (PSR sort gate): low polyreactivity

## QVQLVESGGGLVQAGGSLRLSCAASGFILYTYAMGWYRQAPGKERELVADIDSGDGTYYADSVKGRFTISRDNAKNTVYLQMNSLKPEDTAVYYCAAQVVTWSYVYDVPGYYRYDYWGQGTQVTVSS
  polyreactivity (PSR sort gate): low polyreactivity

## QVQLVESGGGLVQAGGSLRLSCAASGITFGANTMGWYRQAPGKERELVADITVTGDGTYYADSVKGRFTISRDNAKNTVYLQMNSLKPEDTAVYYCAADFWLVSFQWDFEYDYWGQGTQVTVSS
  polyreactivity (PSR sort gate): low polyreactivity

## QVQLVESGGGLVQAGGSLRLICAASGRTFSSYSMGWYRQAPGKERELVAAISRSGARTYYADSVKGRFTISRDNAKNTFYVQMNSLKPEDTAVYSCAGVTVAGYDYWGQGTEVTVSS
  polyreactivity (PSR sort gate): high polyreactivity

## QVQHEESRRGLVQAGVSLRLRCAASGYTFRVYLMGCYRQAPGKERELVAAITYSGGRTYYADSVKGRFTISRDNAKNTVYLQMNSLKPVDTAVYYCAAERPWYGRDRGFDYWGQGTQVTVSS
  polyreactivity (PSR sort gate): high polyreactivity

## QVQIVESGGGLVQAGGSLRLSCAASGRIFGPYPMGWYRQAHVKERELVAAISCRGSSTYYADSVKGRFSISRDYAKNTVYLHMIILKPEDTAVFYCAKYPTYSYDYWGQGTQVTVSS
  polyreactivity (PSR sort gate): high polyreactivity

## QDQLVESVGGLVQAGGSLRLSCAASGSIFNRYVMGCYSQAPGKERELVAAMSRRGGNTYYADSVKGRFTISRDNAKNTVYLQMNSLKPEATAVYYCAADYSYYYGYDYWGQGTQVTVSS
  polyreactivity (PSR sort gate): high polyreactivity

## QVQLVESGGGLVQAGGSLRLICAASGTFRINAMGWYRQAPGKEREFVATITSGGSTNYADSVKGRFTISRDNAKNTVYLQMNSLKPEDTAVYYCSRTRKIAGYYFWGQGTQVTVSS
  polyreactivity (PSR sort gate): high polyreactivity

## QVQLVESGGGLVQAGGSLRLSCAASGGIFRDYAMGWSRQAPGKERELVAAISRSGDSTYYADSVKGRFTISRDNAKNTVYLQMNSLKPEDTAVYSCAADWLWAWHYYGAMDYWGQGTQVTVSS
  polyreactivity (PSR sort gate): high polyreactivity

## QVQLVESGGGLVQAGGSLRLSCAASGRIFRRYARGWYRQAPGKERELVATISRGGSNTSYADSVKGRFTISRDNAKNTVYLQMNSLKPEDTAVYYCAKGSVRYYVGYDYWGQGTQVSVSS
  polyreactivity (PSR sort gate): high polyreactivity

## QVQLVESGGGLVQARGSLRLSCAASGRIFKRYTMGWYTQAPGKKRELVATISSGDSTTYADSVKGRFTISRDNAKNTVYLQMNSLKQEDTAVYYCAAVWPGGSRRGDVVALNYWGQGTQVTVSS
  polyreactivity (PSR sort gate): high polyreactivity

## QVQLVESGGGLVQAGGSLRLSCAASGSIFVVYGMGWYRQAPGKERELVAAISGGITNYADSVKGRFTISRDNAKNTVYLQMNSLKPEDTAVYYCATVDGAYQYTYDYWGQGTQVTVSS
  polyreactivity (PSR sort gate): low polyreactivity

## QVQLVESGGGLVQAGGSLRLSCAASGNTLGYYAMGWYRPAPGKERELVATISDDGTTYYADSVKGRFTISRDNAKNTVSLQMNSLKPEDTAVYYCATDGSAQYSMDYWGQGTQVTVSS
  polyreactivity (PSR sort gate): low polyreactivity

## QVQLVESGGGLVQAGGSLRLSCAASGRTFAFNAMGWCRQAPGKDRELVAAISQGADSTYYADSVKGRFTISRDNAKNPVDLQMNSLKPEDTAVYYCAAEAQYNFYSYDYWGQGTQVTVSS
  polyreactivity (PSR sort gate): low polyreactivity

## QVQLVESGAGLVQEVGSLRLSCAASGFTFGVNAMGSSRQAPGKERQFVASIRVRGCSTYYADSEKGRFTISRDNAKNTVYLQMNSLKPEDTAVYFCNAEVYVSSYATEMDYWGQGTQVTVSS
  polyreactivity (PSR sort gate): low polyreactivity

## QVQLVESRGGLVQAGGSLRLSCAASGLNFSYYAMGWYRQAPGKERELVAAIDWNSGSTYYADSVKGRFTISRDNAKNTVYLQMNSLKPEDTAVYYCAAYGSFWYARFGYWGQGTQVTVSS
  polyreactivity (PSR sort gate): low polyreactivity

## QGQLVESGGGLVQAGGSLRLSSAASGSTFVGNAMGWYRQAPGKEREMVATISNSGGRTYYADSVKGRFTISRDNAKNTVYLQMTSLKPEDTAVYDCAADHPAFGPGYSFDYWGQGTQVTLSS
  polyreactivity (PSR sort gate): low polyreactivity

## QVQLVETGGGLVQAGGSLRLSCAASGRTFHRYAVGWYRQAPGKVRELVAAISFSGGSTYYADSVKGRFTISRDNAKNTVYLQMNSLKPEDTAVYYCAPRAVWSSWGRRYDSWGEGTQVTVSS
  polyreactivity (PSR sort gate): high polyreactivity

## QDQLVESGGGLVQAGGSLRLSCDASGRIFWVYVMGWYRQAPGKERELVADITSIGGSTYYADSVKGRFTISRDNAKNTVYLQMNSLKPEDTAVYSCAADVDGYPYYQYKMGYWGQGTQVTVSS
  polyreactivity (PSR sort gate): low polyreactivity

## QVQLVESGGGLVQAGGSLRLSCADSGVIFVGYAMGGYRQAHGKERELVASIDGRVGSTYYADSVKGRFTISRDNAKITVYLQMNSLKPEDTAVYYCAAGGRAVRIYWGYYRTSYDYWGQGTQVTVSS
  polyreactivity (PSR sort gate): low polyreactivity

## QVQLVESGGGLVQAGGSLRLSCASSGLIFWKYAMVWYRQAPGKERELVAAIRKSVGSTYYADSVKGRFTISRDNAKNTVFLQMNSLKPEDTAVYFCAAVYAGVGSQVKPDYCGQGTQVTVSS
  polyreactivity (PSR sort gate): high polyreactivity

## QVQLVESGGGLVQAGGSLRLSCAASGSIFRRNAMGWYRQAPAKERDLVAAISVRGGSTYYAYSVKGRFTISRDLAKNTVYLQMISLKPEDTAVYYCAADEFDDYDWYRGYDSTYDYWGQGTQVTVST
  polyreactivity (PSR sort gate): low polyreactivity
